This data set has as its target McDRM2 (Malus cv. spp. (crabapple), UniProt UPI0010AA5BBA 1-600). The experiment in a line: EMSA; 10x binding buffer, MgCl2, NP-40; 2 uL 10x binding buffer, 1 uL 50% glycerol, 1 uL 100 mM MgCl2, 1 uL 1% NP-40, 2 ug protein, 2 uL 0.1 uM biotin oligo; 25 C, 20 min; 12% native PAGE; pH and salt not given. The following applies: protein: recombinant; tags: MBP (pMAL-C2X); label: 3' biotin. (In general: Mobility shift assays separate free from complexed probe on a gel.)

McDRM2, sequence (chain, as listed by the source): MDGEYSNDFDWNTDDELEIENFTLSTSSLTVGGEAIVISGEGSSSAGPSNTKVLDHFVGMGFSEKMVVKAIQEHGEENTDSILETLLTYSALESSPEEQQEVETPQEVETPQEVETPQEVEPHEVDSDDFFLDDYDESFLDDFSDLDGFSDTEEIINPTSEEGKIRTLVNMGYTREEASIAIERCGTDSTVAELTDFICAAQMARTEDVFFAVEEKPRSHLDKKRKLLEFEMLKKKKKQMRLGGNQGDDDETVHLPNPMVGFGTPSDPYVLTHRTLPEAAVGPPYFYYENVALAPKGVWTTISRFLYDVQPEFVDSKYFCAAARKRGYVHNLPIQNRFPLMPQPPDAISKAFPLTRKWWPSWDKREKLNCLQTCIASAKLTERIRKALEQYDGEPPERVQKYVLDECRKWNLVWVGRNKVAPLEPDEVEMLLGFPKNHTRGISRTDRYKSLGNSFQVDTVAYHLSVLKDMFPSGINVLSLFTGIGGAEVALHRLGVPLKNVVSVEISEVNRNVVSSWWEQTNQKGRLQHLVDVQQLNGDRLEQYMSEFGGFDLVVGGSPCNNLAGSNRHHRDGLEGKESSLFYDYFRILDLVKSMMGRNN

B1: McCOP1 promoter SINE-site probe (dsDNA)
DNA 1: TTCAACGTATTAACTTTATCGGTTCGGTGGACAATTCC
DNA 2: GGAATTGTCCACCGAACCGATAAAGTTAATACGTTGAA
As for B1, the binding result is listed as “no binding”.

Values taken from paper PMC8618851, “The RNA Directed DNA Methylation (RdDM) Pathway Regulates Anthocyanin Biosynthesis in Crabapple (Malus cv. spp.) Leaves by Methylating the McCOP1 Promoter”.
